The values below come from the nanobody polyreactivity screen of Harvey et al. (2022).

The nature of the data set: yeast display, Sf9 membrane polyspecificity reagent, FACS + sequencing; frameworks hold sequencing errors. A digest of the protocol: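 Nanobodies from a synthetic yeast display library (Saccharomyces cerevisiae BJ5465), induced 36–48 hours with galactose, were stained 1 hour at 4 °C with 10% biotinylated, detergent-solubilized Sf9 membrane reagent, enriched on streptavidin microbeads, then FACS-sorted. Anti-HA (expression) and streptavidin (reagent binding) fluorescence set low and high (top ~1%) gates. Polyreactivity labels come from the gate of origin. Genes were colony-PCR amplified, MiSeq 2 × 250 sequenced and filtered by CDR length.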
Turning to “QVHLVESGGGLVQAGGSLRLSCAASGSTFALYGMGWYRQAPGKERELVAASTWSGTGTYYADSVKGRFTISRDNAKNTVYLQMNSLKPEDTAVYYCAADGYTTYYSEFYYWGQATQVTVSS”, the “polyreactivity (PSR sort gate)” value is reported as “low polyreactivity”.
Under “QVQLVESGGGLVQAGGSLRLSCAASGRTFGLYAMGWYRQAPGKERELVAAIDQSTGSTYYADSVKGRFTISRDNAKNTVYLQMNSLKPEDTAVYYCAAEEASTVRYYWYDYWGQVTQVTVSS” stands “high polyreactivity”; under “QVQLVESGGGLVQAGGSLRLSCAASGSTFSDNAMGWYRQAPGKERELVAANTSGGSTYYADSVKGRFTISRDNAKNTVYLQMNSLKPEDTAVYYCAADYWGQGTQVTVSS”, “low polyreactivity”; under “QVQLVESGGGLVQAGGSLRLSCAASGFTFQSNAMGWYRQAPGKERELVATISLTGGSTYYADSVKGRFTISRDNAKNTVYLQMNSLKPEDTAVYYCNAVRYASPYGYWGQGTQVTVSS”, “high polyreactivity”.
“QVQLVESGGGLVQAGGSLRLSCAASGFTFRAYAMGWYRQAPGKERELVAAINISGGSTYYADSVKGRFTISRDNAKNTVYLQMNSLKPEDTAVYYCAADWPEDWYTEYGYWGQGTQVTVSS”: the “polyreactivity (PSR sort gate)” value is reported as “low polyreactivity”.
Under “QVQLVESGGGLVQAGGSLRLSCAASGRNFDKYTMGWYRQAPGKERELVAAISKSGSGTFYADSVKGRFTISRDNAKNTVYLQMNRLKPEDTAVYYCARVYTVGTGRSWRLDYWGQGTQVTVSS” stands “high polyreactivity”; under “QVQLVESAGGLVQAGGRLRLSCAASGIIFEQYAMGSYRQAPGKERELVAAISSGCTTYADSVKGRFTISRDNAKNTVYLQMNSLTPEDTAVYYGNADLSWDGPDWSDYEYDYWGQGTQVTVSS”, “low polyreactivity”.
Turning to “QVQLVESGGGLVQAGGSLRLSCAASGGTFAIYVKGWYRLAPGKERELVAAITRVGSTYADSVKGRFTISRDNAKNTVYLQMNSLKPEDTAVYYCAAVSGVRSGPWRYDYLGQGTQVTVSS”, the “polyreactivity (PSR sort gate)” value is “high polyreactivity”.
With “QVQLVESGGGLVQAGGSLRLSCAASGSIFGLYAMGWYRQAPGKERELVAGITYSGGSTYYADSVKGRFTISRDNAKNTVYLQLNSLKPEDTAVYYCNTRYWRGWYAYYYWGQGTQVTVSS”, the “polyreactivity (PSR sort gate)” value is “high polyreactivity”.
The entry for “QVQLVESGGGLVQAGGSLRLSCAASGITFWVYAMGWYRQAPGKERELVAAISRRGGSTSYADSVKGRFTISRDNAKNTVYLQMNSLKPEDTAVYYCAATTYTHPYGYWGQGTQVTVSS” is “high polyreactivity”; for “QVQLVESGGGLVQAGGSLRLSCAASGRTFRQYAMGWYRQAPGKERELVADISSGGSTYYADSVKGRFTISRDNAKNTVYLKLNRLKPEDTAVYYCNKVSSGRYGSRSFDYWGQGTQVTVSS” it is “low polyreactivity”.
Under “QVQLVESGGGLVQAGGSLRLSCAASGYTIGNNAMGWYRQAPGKERELVARIRTNGGTTYYADSVKGRFTISRDYAKNTVYLQMISLKPEDTAVYYCIAYRGYEYDYWGQGTQVTVSS” stands “low polyreactivity”.
The entry for “QVQLVESGGGLVQAGGSLRLSCAASGSTFVWNAMGWYRQAPGKERELVASISSSGDRTYYADSVKGRFTISRDNAKNTVYLQMNSLKPEDTAVYYCAARYTRADYDYLGQGTQVTVSS” is “high polyreactivity”.
For the sequence “QVQLVESGGGLVQAGGCLRLSCAASGRTFYRNVMGWYRQAPGKEREWVGAISSRGGSTYYADSVKGRFTISRDNAKNTVYLQMNSLKPEDTAVYYCAAEGTYYGSDYWGQGTQVTVSS”, the “polyreactivity (PSR sort gate)” value was “high polyreactivity”.
With “QVQLVESGGGLVQAGGSLRLSCAASGSTLDRNTMGWYRQAPGKERELVAAITSSGGRTYYADSVKGRFTISRDNEKNTVYFQMNSLKPDDTAVYYCNNDYWKRPVDEYDYWGQGTQVTVSS”, the “polyreactivity (PSR sort gate)” value is listed as “high polyreactivity”.
The entry for “QVQLVESGGGLVQAGGSLRLSCAASGSIFGTYAMGWYRQAPGNERELVAAITGNGGRTYYADSVKGRFTISRDNAKNTVYLQMNSLKPEDTAVYYCAKATSRRGFYYWGQGTQVTVSS” is “high polyreactivity”.
